This passage reports Kd results from paper PMC2744139.

The experiment concerns the target Cdc13 amino-terminus through the DBD (N) (S. cerevisiae). Kind of experiment: fluorescence polarisation.

Consider “Hsp82 (yeast Hsp90 molecular chaperone) (from UniProt P02829 1-709) (natural protein)”, for which the Kd was 35 nM.
